For one substance, beta-galactosidase activity results are on record in PMC3086059.

The target in this assay is Mua fused to the T18 or T25 fragment of adenylate cyclase (BACTH) (Helicobacter pylori). In words: two-hybrid. Particulars: scale: Miller units per mg of bacterial dry weight.

Consider “Mua fused to the T18 or T25 fragment of adenylate cyclase (BACTH) (natural protein)”, for which the beta-galactosidase activity was in the range of 1920 to 2980.
